# Numbering of substitutions follows the chain as printed.
# B1: 71D6 Fab (Fab, V domains shown)
# VH: ELQLVESGGGLVQPGGSLRLSCAASGFTFSSYGMSWVRQAPGKGLEWVSAINSYGGSTSYADSVKGRFTISRDNAKNTLYLQMNSLKPEDTAVYYCAKEVRADLSRYNDYESYDYWGQGTQVTVSS
# VL: QPVLNQPSALSVTLGQTAKITCQGGSLGARYAHWYQQKPGQAPVLVIYDDDSRPSGIPERFSGSSSGGTATLTISGAQAEDEGDYYCQSADSSGSVFGGGTHLTVL
# notes: llama Fab (VH-CH1 and lambda VL-CL) with MYC flag, crude periplasmic extract
# B2: 71C3 Fab (Fab, V domains shown)
# VH: B1 VH with E1Q, Y32H, G33A, Y54G, V100L, A102F, S105A, N108T, S112A, Y113W
# VL: SYELTQPSALSVTLGQTAKITCQGGSLGSSYAHWYQQKPGQAPVLVIYDDDSRPSGIPERFSGSSSGGTATLTISGAQAEDEGDYYCQSADSSGNAAVFGGGTHLTVL
# notes: as for B1
# B3: 71D4 Fab (Fab, V domains shown)
# VH: B1 VH with S31G, A50D, Y54G, E99D, V100M, A102L, D103Y, S105A, S112A, Y113W
# VL: B2 VL with Y2S, E3A
# notes: as for B1
# B4: 72F8 chimeric llama-human IgG1 mAb (antibody, V domains shown)
# VH: ELQLVESGGGLVQPGGSLRLSCAASGFTFSNYVMSWVRQAPGKGLEWVSDTNSGGSTSYADSVKGRFTISRDNAKNTLYLQMNSLKPEDTALYYCARSFFYGMNYWGKGTQVTVSS
# VL: QSALTQPPSLSASPGSSVRLTCTLSSGNNIGSYDISWYQQKAGSPPRYLLNYYTDSRKHQDSGVPSRFSGSKDASANAGLLLISGLQPEDEADYYCSAYKSGSYRWVFGGGTHVTVL
# notes: llama VH on human IgG1 CH1-CH2-CH3, llama VL on human lambda CL
# B5: 71A3 Fab (Fab, V domains shown)
# VH: EVQLVESGGGLVQPGGSLRLSCAASGFSFKDYDITWVRQAPGKGLEWVSTITSRSGSTSYVDSVKGRFTISGDNAKNTLYLQMNSLKPEDTAVYYCAKVYATTWDVGPLGYGMDYWGKGTLVTVSS
# VL: B2 VL
# notes: as for B1
# B6: 76H10 Fab (Fab, V domains shown)
# VH: QLQLVESGGGLVQPGGSLRVSCTASGFTFNTYYMTWVRQAPGKGLEWVSDINSGGGTYYADSVKGRFTISRDNAKNTLYLQMNSLKPEDTALYYCVRVRIWPVGYDYWGQGTQVTVSS
# VL: QAVVTQEPSLSVSPGGTVTLTCGLSSGSVTTSNYPGWFQQTPGQAPRTLIYNTNNRHSGVPSRFSGSISGNKAALTITGAQPEDEADYYCSLYTGSYTTVFGGGTHLTVL
# notes: as for B1
# Columns and labels:
# mouse MET ECD [1] = biological target: T1, mouse MET ECD (mouse, UniProt P16056 25-931); test: ELISA, MET ECD in solid phase, crude periplasmic Fab
# T1 construct: range 1-931; recombinant ECD made by the applicants; the stated range begins at residue 1; also called mMET; mMET ECD
# Method: (§1) Fab-expressing phages from the libraries described above were produced according to standard phage display protocols. For selection, phages were first adsorbed to immobilized recombinant human MET ECD, washed, and then eluted using trypsin. After two cycles of selection with human MET ECD, two other cycles were performed in the same fashion using mouse MET ECD. In parallel, we also selected phages alternating a human MET ECD cycle with a mouse MET ECD cycle, for a total of four cycles. Phages selected by the two approaches were pooled together and then used to infect TG1 E. coli. Individual colonies were isolated and secretion of Fabs was induced using IPTG (Fermentas). The Fab-containing periplasmic fraction of bacteria was collected and tested for its ability to bind human and mouse MET ECD by Surface Plasmon Resonance (SPR). Human or mouse MET ECD was immobilized on a CM-5 chip using amine coupling in sodium acetate buffer (GE Healthcare). The Fab-containing periplasmic extracts were loaded into a BIACORE 3000 apparatus (GE Healthcare) with a flow rate of 30 μl/min. The Fab off-rates (koff) were measured over a two minute period. Binding of Fabs to human and mouse MET was further characterized by ELISA using MET ECD in solid phase and periplasmic crude extract in solution.
# (§2) TABLE 7 Fabs binding to both human MET (hMET) and mouse MET (mMET). Fabs are grouped in families based on their VH CDR3 sequence. Binding of Fabs to human and mouse MET ECD was determined by Surface Plasmon Resonance (SPR) and by ELISA. SPR values represent the koff (s⁻¹). ELISA values represent the Optical Density (OD) at 450 nm (AU, arbitrary units). Both SPR and ELISA were performed using crude periplasmic extracts. Fab concentration in the extract was not determined. Values are the mean of three independent measurements.
# human MET ECD [2] = biological target: T2, human MET ECD (human, UniProt P08581 25-932); test: as above
# T2 construct: range 1-932; recombinant ECD made by the applicants; the stated range begins at residue 1, so it includes the signal peptide of the entry; also called hMET; hMET ECD
# T2 sequence (P08581 25-932 limits assumed, form in doubt): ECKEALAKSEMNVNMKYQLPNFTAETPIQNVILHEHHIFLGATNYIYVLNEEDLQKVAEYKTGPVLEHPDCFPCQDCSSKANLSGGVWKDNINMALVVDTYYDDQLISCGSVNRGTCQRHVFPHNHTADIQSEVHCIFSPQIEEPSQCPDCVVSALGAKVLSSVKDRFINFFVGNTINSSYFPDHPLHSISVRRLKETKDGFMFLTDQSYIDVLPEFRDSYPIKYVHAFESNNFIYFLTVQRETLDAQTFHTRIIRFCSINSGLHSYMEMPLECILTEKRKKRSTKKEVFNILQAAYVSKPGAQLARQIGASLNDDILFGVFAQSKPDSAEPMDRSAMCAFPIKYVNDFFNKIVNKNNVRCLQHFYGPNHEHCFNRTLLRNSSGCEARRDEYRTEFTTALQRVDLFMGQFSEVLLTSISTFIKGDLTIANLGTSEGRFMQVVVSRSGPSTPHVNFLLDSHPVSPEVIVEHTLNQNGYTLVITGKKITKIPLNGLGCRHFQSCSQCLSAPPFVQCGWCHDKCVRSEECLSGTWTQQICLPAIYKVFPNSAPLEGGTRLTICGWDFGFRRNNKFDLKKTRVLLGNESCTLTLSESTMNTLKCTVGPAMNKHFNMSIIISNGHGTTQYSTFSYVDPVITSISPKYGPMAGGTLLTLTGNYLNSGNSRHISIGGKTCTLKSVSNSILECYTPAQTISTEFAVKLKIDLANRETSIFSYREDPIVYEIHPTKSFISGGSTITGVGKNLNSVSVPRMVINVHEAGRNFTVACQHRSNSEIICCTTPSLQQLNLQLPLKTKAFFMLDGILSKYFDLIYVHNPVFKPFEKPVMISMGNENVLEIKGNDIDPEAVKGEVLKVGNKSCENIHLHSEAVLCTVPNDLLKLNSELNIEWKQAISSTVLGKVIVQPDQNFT
# Method: as §1, §2
# mouse MET ECD [3] = biological target: T1, mouse MET ECD; test: SPR, MET ECD on chip, crude periplasmic Fab
# Method: as §1, §2
# human MET ECD [4] = biological target: T2, human MET ECD; test: SPR, MET ECD on chip, crude periplasmic Fab
# Method: as §1, §2
# mouse MET ECD [5] = biological target: T1, mouse MET ECD; test: ELISA, MET ECD in solid phase, mAb 0-20 nM
# Method: (§3) Production (by transient transfection of mammalian cells) and purification (by protein A affinity chromatography) of the resulting chimeric llama-human IgG1 molecules was outsourced to U-protein Express. Binding of chimeric mAbs to MET was determined by ELISA using hMET or mMET ECD in solid phase and increasing concentrations of antibodies (0-20 nM) in solution. […] Binding capacity (EMAX) varied from antibody to antibody, possibly due to partial epitope exposure in the immobilized antigen, but was similar in the human and mouse setting.
# human MET ECD [6] = biological target: T2, human MET ECD; test: ELISA, MET ECD in solid phase, mAb 0-20 nM
# Method: as §3
# [7] = biological target: T3, native human MET on living cells (human, UniProt P08581 25-1390); test: cell-based or functional assay
# T3 sequence (P08581 25-1390): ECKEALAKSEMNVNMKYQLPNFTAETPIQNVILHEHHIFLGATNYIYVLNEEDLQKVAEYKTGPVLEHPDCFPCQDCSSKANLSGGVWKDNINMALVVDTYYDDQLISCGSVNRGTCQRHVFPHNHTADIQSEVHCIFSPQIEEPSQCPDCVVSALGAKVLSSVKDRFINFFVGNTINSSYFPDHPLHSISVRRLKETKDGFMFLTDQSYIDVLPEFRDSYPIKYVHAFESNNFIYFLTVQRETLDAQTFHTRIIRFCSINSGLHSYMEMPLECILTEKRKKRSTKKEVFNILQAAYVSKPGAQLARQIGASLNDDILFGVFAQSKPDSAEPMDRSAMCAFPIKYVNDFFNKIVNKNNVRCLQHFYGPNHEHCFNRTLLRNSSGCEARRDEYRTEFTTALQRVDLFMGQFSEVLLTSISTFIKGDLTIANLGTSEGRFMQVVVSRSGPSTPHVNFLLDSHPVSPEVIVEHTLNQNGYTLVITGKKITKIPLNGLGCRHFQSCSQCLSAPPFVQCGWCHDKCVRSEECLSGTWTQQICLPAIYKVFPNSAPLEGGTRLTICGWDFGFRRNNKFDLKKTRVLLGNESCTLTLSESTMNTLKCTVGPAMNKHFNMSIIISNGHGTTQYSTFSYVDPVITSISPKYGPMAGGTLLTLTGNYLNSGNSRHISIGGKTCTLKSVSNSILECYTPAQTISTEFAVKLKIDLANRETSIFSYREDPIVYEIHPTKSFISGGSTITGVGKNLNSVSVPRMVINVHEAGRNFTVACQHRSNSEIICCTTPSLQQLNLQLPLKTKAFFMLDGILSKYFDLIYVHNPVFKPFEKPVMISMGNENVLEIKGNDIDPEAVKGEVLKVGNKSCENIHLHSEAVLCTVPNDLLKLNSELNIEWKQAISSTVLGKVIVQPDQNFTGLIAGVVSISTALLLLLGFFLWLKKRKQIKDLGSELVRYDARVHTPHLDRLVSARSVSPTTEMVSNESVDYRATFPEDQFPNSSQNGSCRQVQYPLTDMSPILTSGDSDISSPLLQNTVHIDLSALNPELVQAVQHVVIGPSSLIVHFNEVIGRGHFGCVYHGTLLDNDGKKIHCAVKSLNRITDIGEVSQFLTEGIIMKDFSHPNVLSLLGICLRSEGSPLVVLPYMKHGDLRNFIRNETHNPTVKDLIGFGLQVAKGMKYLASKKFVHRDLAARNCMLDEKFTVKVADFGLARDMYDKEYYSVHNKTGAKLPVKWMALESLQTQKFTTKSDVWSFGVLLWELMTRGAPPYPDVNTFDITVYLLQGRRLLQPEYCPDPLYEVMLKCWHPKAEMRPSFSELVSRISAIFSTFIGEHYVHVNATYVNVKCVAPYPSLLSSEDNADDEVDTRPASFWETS
# [8] = biological target: T4, native mouse MET on living cells (mouse, UniProt P16056 25-1379); test: cell-based or functional assay
# [9] = biological target: T4, native mouse MET on living cells; test: flow cytometry, MLP29 cells
# Method: (§4) We also analysed whether chimeric anti-MET antibodies bound to native human and mouse MET in living cells. […] Antibody binding to cells was analysed by flow cytometry using phycoerythrin-conjugated anti-human IgG1 antibodies (eBioscience) and a CyAn ADP analyser (Beckman Coulter). As a positive control for human MET binding, we used a commercial mouse anti-human MET antibody (R&D Systems) and phycoerythrin-conjugated anti-mouse IgG1 antibodies (eBioscience).
# (§5) As a positive control for mouse MET binding we used a commercial goat anti-mouse MET antibody (R&D Systems) and phycoerythrin-conjugated anti-goat IgG1 antibodies (eBioscience). […] Consistent with the data obtained in ELISA, maximal binding (EMAX) varied depending on antibody, but was similar in human and mouse cells.
# [10] = biological target: T5, human MET-Fc (R&D Systems) (human, UniProt P08581 25-932); test: competition ELISA, hMET-Fc in solid phase, competitor 0.3 nM biotinylated hHGF
# T5 construct: extracellular domain; bought chimeric protein; also called hMET; not shown: Fc portion of human IgG1
# T5 sequence (P08581 25-932): as the sequence (P08581 25-932 limits assumed, form in doubt) above
# Method: (§6) To investigate along this line, we tested the competition between mAbs and HGF by ELISA. Recombinant human and mouse HGF (R&D Systems) were biotinylated at the N-terminus using NHS-LC-biotin (Thermo Scientific). MET-Fc protein, either human or mouse (R&D Systems), was immobilized in solid phase and then exposed to 0.3 nM biotinylated HGF, either human or mouse, in the presence of increasing concentrations of antibodies (0-120 nM).
# (§7) A MET-Fc chimeric protein (either human or mouse) was immobilized in solid phase and exposed to a fixed concentration of biotinylated HGF (either human or mouse), in the presence of increasing concentrations of antibodies. […] Antibody-HGF competition is expressed as IC₅₀ (the concentration that achieves 50% competition) and IMAX (the maximum % competition reached at saturation).
# [11] = biological target: T3, native human MET on living cells; test: cell-based or functional assay; remark: listed apart in the source
# [12] = biological target: T4, native mouse MET on living cells; test: cell-based or functional assay; remark: listed apart in the source
# [13] = biological target: T3, native human MET on living cells; test: cell-based or functional assay; remark: listed apart in the source
# [14] = biological target: T4, native mouse MET on living cells; test: cell-based or functional assay; remark: listed apart in the source
# [15] = biological target: T6, mouse MET-Fc (R&D Systems) (mouse, UniProt P16056 25-929, limits assumed); test: competition ELISA, mMET-Fc in solid phase, competitor 0.3 nM biotinylated mHGF
# T6 construct: bought chimeric protein; also called mMET; not shown: Fc part
# Method: as §6, §7
# [16] = biological target: T3, native human MET on living cells; test: cell-based or functional assay; remark: listed apart in the source
# [17] = biological target: T4, native mouse MET on living cells; test: cell-based or functional assay; remark: listed apart in the source
# [18] = biological target: T3, native human MET on living cells; test: flow cytometry, A549 cells
# Method: as §4, §5
binder,measurement,setting,value
B1,OD450,mouse MET ECD [1],3.07 AU
same,OD450,human MET ECD [2],3.26 AU
same,koff,mouse MET ECD [3],0.00267 s⁻¹
same,koff,human MET ECD [4],0.00294 s⁻¹
B2,OD450,mouse MET ECD [1],1.64 AU
same,OD450,human MET ECD [2],1.65 AU
same,koff,mouse MET ECD [3],0.00258 s⁻¹
same,koff,human MET ECD [4],0.00225 s⁻¹
B3,OD450,mouse MET ECD [1],0.307 AU
same,OD450,human MET ECD [2],0.311 AU
same,koff,mouse MET ECD [3],0.00238 s⁻¹
same,koff,human MET ECD [4],0.00217 s⁻¹
B4,EC50,mouse MET ECD [5],0.048 nM
same,EMAX (OD450),mouse MET ECD [5],2.9 AU
same,EC50,human MET ECD [6],0.064 nM
same,EMAX (OD450),human MET ECD [6],2.78 AU
same,"phospho-MET ELISA EC50, A549 cells",[7],1.51 nM
same,"phospho-MET ELISA EMAX (% HGF activity), A549 cells",[7],69.7%
same,"phospho-MET ELISA EC50, MLP29 cells",[8],0.79 nM
same,"phospho-MET ELISA EMAX (% HGF activity), MLP29 cells",[8],66.8%
same,EC50,[9],0.359 nM
same,EMAX,[9],172 % relative to control
same,IC50,[10],0.45 nM
same,IMAX,[10],77.3%
same,"protection from staurosporine, viability EC50, MCF10A cells",[11],> 32 nM
same,"protection from staurosporine, viability EMAX, MCF10A cells",[11],35.8%
same,"protection from staurosporine, viability EC50, MLP29 cells",[12],> 32 nM
same,"protection from staurosporine, viability EMAX, MLP29 cells",[12],43.8%
same,"scatter score 0-4, HPAF-II, 0.001 nM",[13],0 score
same,"scatter score 0-4, HPAF-II, 0.004 nM",[13],0 score
same,"scatter score 0-4, HPAF-II, 0.012 nM",[13],0 score
same,"scatter score 0-4, HPAF-II, 0.037 nM",[13],0 score
same,"scatter score 0-4, HPAF-II, 0.111 nM",[13],0 score
same,"scatter score 0-4, HPAF-II, 0.333 nM",[13],0 score
same,"scatter score 0-4, HPAF-II, 1.000 nM",[13],1 score
same,"scatter score 0-4, HPAF-II, 3.000 nM",[13],2 score
same,"scatter score 0-4, HPAF-II, 9.000 nM",[13],3 score
same,"scatter score 0-4, MLP29, 0.001 nM",[14],0 score
same,"scatter score 0-4, MLP29, 0.004 nM",[14],0 score
same,"scatter score 0-4, MLP29, 0.012 nM",[14],0 score
same,"scatter score 0-4, MLP29, 0.037 nM",[14],0 score
same,"scatter score 0-4, MLP29, 0.111 nM",[14],0 score
same,"scatter score 0-4, MLP29, 0.333 nM",[14],0 score
same,"scatter score 0-4, MLP29, 1.000 nM",[14],1 score
same,"scatter score 0-4, MLP29, 3.000 nM",[14],2 score
same,"scatter score 0-4, MLP29, 9.000 nM",[14],3 score
same,IC50,[15],0.52 nM
same,IMAX,[15],72.8%
same,"branches per spheroid, LOC cells, 0.5 nM",[16],9 branches
same,"branches per spheroid, LOC cells, 2.5 nM",[16],12.3 branches
same,"branches per spheroid, LOC cells, 12.5 nM",[16],16 branches
same,"branches per spheroid, MLP29 cells, 0.5 nM",[17],12.7 branches
same,"branches per spheroid, MLP29 cells, 2.5 nM",[17],11.7 branches
same,"branches per spheroid, MLP29 cells, 12.5 nM",[17],18.7 branches
same,EC50,[18],0.371 nM
same,EMAX,[18],156 % relative to control
B5,OD450,mouse MET ECD [1],0.524 AU
same,OD450,human MET ECD [2],0.581 AU
same,koff,mouse MET ECD [3],0.00474 s⁻¹
same,koff,human MET ECD [4],0.00492 s⁻¹
B6,OD450,mouse MET ECD [1],3.7 AU
same,OD450,human MET ECD [2],3.7 AU
same,koff,mouse MET ECD [3],0.00544 s⁻¹
same,koff,human MET ECD [4],0.00568 s⁻¹

# Source: patent US20210087281A1 (AGOMAB THERAPEUTICS, published 2021)
